What was measured:
[1] = biological target: T1, human A33 antigen, full length, on cells (human, UniProt Q99795 22-319); assay: IHC on LS174T FFPE sections, 20ug/mL
T1 construct: CHO cells transfected with full length A33 cDNA (A33-CHO), or endogenous antigen of LS174T (colon) and AsPC-1 (pancreatic) tumour cells; The cell line is named under assay; also called A33-CHO; A33 antigen on LS174T cells
T1 sequence: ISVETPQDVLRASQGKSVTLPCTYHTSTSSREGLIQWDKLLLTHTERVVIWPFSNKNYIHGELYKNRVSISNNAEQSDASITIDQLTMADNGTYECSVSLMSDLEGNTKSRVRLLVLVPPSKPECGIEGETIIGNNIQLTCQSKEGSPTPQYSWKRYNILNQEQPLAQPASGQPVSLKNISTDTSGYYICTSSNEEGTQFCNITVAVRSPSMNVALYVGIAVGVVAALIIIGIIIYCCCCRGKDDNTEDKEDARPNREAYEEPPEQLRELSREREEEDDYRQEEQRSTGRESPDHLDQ
Procedure: (§1) Human IgG ELISA, rH-GPA33 Binding ELISA, cell Flow Cytometry (LS174T or AsPAC1), IHC staining (LS174T FFPE, tumor FFPE and Frozen tumor sections) and Coomassie blue staining of SDS-PAGE gel were used for the screening. Antibody in the culture supernatant was purified by Protein A/G purification in the column and dissolved in PBS buffer after three times dialysis. Aliquots of the antibodies were kept at -20° C. for storage.
(§2) Each combination was produced by transient transfection by using Expi293 Expression System Kit (Gibco, cat# A14635). […] Methods of Human IgG ELISA, rH-GPA33 Binding ELISA, LS174T cell Flow Cytometry, IHC staining on LS174T FFPE sections and Coomassie blue staining of SDS-PAGE gel were used for the initial screening.

[2] = biological target: T1, human A33 antigen, full length, on cells; assay: flow cytometry on LS174T cells, 0.37ug/mL
Procedure: as §1, §2

[3] = biological target: T1, human A33 antigen, full length, on cells; assay: flow cytometry, AsPC-1 cells, 2.3 ng/ml, experiment 1
[4] = biological target: T1, human A33 antigen, full length, on cells; assay: flow cytometry, AsPC-1 cells, 2.3 ng/ml, experiment 2
[5] = biological target: T1, human A33 antigen, full length, on cells; assay: flow cytometry, AsPC-1 cells, 6.9 ng/ml, experiment 1
[6] = biological target: T1, human A33 antigen, full length, on cells; assay: flow cytometry, AsPC-1 cells, 6.9 ng/ml, experiment 2
[7] = biological target: T2, human recombinant A33 antigen (human, UniProt Q99795 22-235); assay: rH-GPA33 binding ELISA, first round supernatant
T2 construct: also called rH-GPA33; rHGPA33
T2 sequence: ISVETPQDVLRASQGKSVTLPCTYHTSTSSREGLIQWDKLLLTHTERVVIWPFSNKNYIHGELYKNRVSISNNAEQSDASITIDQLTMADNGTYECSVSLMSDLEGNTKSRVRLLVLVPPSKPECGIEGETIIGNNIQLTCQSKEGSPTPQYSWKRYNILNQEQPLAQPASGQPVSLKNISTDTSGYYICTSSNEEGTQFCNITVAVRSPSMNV

[8] = biological target: T1, human A33 antigen, full length, on cells; assay: flow cytometry, AsPC-1 cells, 20.6 ng/ml, experiment 1
[9] = biological target: T1, human A33 antigen, full length, on cells; assay: flow cytometry, AsPC-1 cells, 20.6 ng/ml, experiment 2
[10] = biological target: T1, human A33 antigen, full length, on cells; assay: flow cytometry, AsPC-1 cells, 5000 ng/ml, experiment 1
[11] = biological target: T1, human A33 antigen, full length, on cells; assay: flow cytometry, AsPC-1 cells, 5000 ng/ml, experiment 2
[12] = biological target: T1, human A33 antigen, full length, on cells; assay: flow cytometry, AsPC-1 cells, 61.7 ng/ml, experiment 1
[13] = biological target: T1, human A33 antigen, full length, on cells; assay: flow cytometry, AsPC-1 cells, 61.7 ng/ml, experiment 2
[14] = biological target: T1, human A33 antigen, full length, on cells; assay: flow cytometry, AsPC-1 cells, 185.2 ng/ml, experiment 1
[15] = biological target: T1, human A33 antigen, full length, on cells; assay: flow cytometry, AsPC-1 cells, 185.2 ng/ml, experiment 2
[16] = biological target: T1, human A33 antigen, full length, on cells; assay: flow cytometry, AsPC-1 cells, 555.6 ng/ml, experiment 1
[17] = biological target: T1, human A33 antigen, full length, on cells; assay: flow cytometry, AsPC-1 cells, 555.6 ng/ml, experiment 2
[18] = biological target: T1, human A33 antigen, full length, on cells; assay: flow cytometry, AsPC-1 cells, 1666.7 ng/ml, experiment 1
[19] = biological target: T1, human A33 antigen, full length, on cells; assay: flow cytometry, AsPC-1 cells, 1666.7 ng/ml, experiment 2
[20] = biological target: T2, human recombinant A33 antigen; assay: rH-GPA33 binding ELISA, 2ug/mL of 31.1, supernatant
Procedure: as §1, §2

[21] = biological target: T1, human A33 antigen, full length, on cells; assay: flow cytometry, AsPC-1 cells, 0 ng/ml (background, no antibody), experiment 1
[22] = biological target: T1, human A33 antigen, full length, on cells; assay: flow cytometry, AsPC-1 cells, 0 ng/ml (background, no antibody), experiment 2

B1: humanized 31.1 antibody #11 (sdr31.1-HC + sdr31.1-LC) (antibody, human IgG1, kappa, V domains shown)
VH: QIQLVQSGAEVKKPGASVKVSCKASGYTFTNYGMNWVRQAPGKGLEWMGWINPYTGEPTYAQKFQGRVTFTLDTSISTAYMELSRLRSDDTAVYFCARAYYGKYFDYWGQGTTVTVSS
VL: SIQMTQSPSSLSASVGDRVTITCRASQSISNDLAWYQQKPGQSPKLLIYYASNRYTGVPDRFSGSGYGTDFTLTISSLQPEDFAVYFCQQDYSSPLTFGAGTKLEIKR
notes: Full heavy and light chains; supernatant in the first screen, Protein A/G purified in the third round; used as negative control; also called Sample ID 11; sdr-HC + sdr-LC
B1 showed a H-Score of IHC [1] of 160 H-Score, an MFI [2] of 5.6 MFI and an MFI [3] of 3.4 MFI. The MFI [4] was 3.5 MFI, the MFI [5] was 3.6 MFI and the MFI [6] was 3.6 MFI. The binding result [7] was “no binding”, the MFI [8] was 4 MFI and the MFI [9] was 4 MFI. For the same binder, the MFI [10] was 117 MFI, the MFI [11] was 117 MFI and the MFI [12] was 5.9 MFI. It also gave an MFI [13] of 5.3 MFI, an MFI [14] of 8.2 MFI and an MFI [15] of 8.2 MFI. For the same binder, the MFI [16] was 16.2 MFI, the MFI [17] was 16.6 MFI and the MFI [18] was 38.9 MFI. The MFI [19] was 39 MFI, the “OD Value of rH-GPA33 Binding ELISA” value [20] was 0.06 OD and the MFI [21] was 3.6 MFI. For the same binder, the MFI [22] was 3.6 MFI.
